Measurements from PMC4479986, “An Alternative Phosphorylation Switch in Integrin β2 (CD18) Tail for Dok1 Binding” (Scientific Reports, 2015).
Values belong to the molecule of their own block, whether it stands above or below them. Square brackets hold non-standard residues; d marks the D form. Ends that are not written are not given here. Peptide text beside a SMILES is read from it. pS = N[C@@H](COP(=O)(O)O)C(=O)O

Columns and labels:
Dok1 PTB domain = biological target: T1, Dok1 PTB domain (Homo sapiens, UniProt Q99704); experiment: 15N-1H HSQC NMR chemical shift titration of Dok1 PTB domain with integrin β2 tail peptides; format: binding; settings: Table 2; 15N-1H HSQC combined chemical shift perturbation, 0.7 mM 15N-Dok1 PTB domain, 50 mM sodium phosphate pH 6.0, 100 mM NaCl, 2 mM DTT, 20 min equilibration; depletion model fit; Kd ± S.E.; read-out: Dissociation constant Kd
T1 construct: Human Dok1 PTB domain (Q154 – G256; Swiss-Prot Q99704, number as Q1-G103); six His-tag (N); made in house; host or cells: Escherichia coli Rosetta
T1 sequence (Q99704 154-256): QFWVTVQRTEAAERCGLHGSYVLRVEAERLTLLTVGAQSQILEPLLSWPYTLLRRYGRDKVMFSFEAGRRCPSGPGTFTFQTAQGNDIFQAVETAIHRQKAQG
Protocol: Human Dok1 PTB domain (Q154 – G256; Swiss-Prot Q99704, number as Q1-G103) was sub-cloned into the pET14b vector with an N-terminal six His-tag. Escherichia coli Rosetta cells were transformed with the expression plasmid and grown at 37 °C either in LB or M9 medium containing [^15N] ammonium chloride (Cambridge Isotope Laboratories). Expression of recombinant protein was induced by adding 1 mM IPTG to cells (OD600 0.6–0.7) followed by incubation for 6–12 h at 16 °C. Cells were centrifuged and re-suspended in Buffer A (20 mM Tris-HCl buffer, pH 8.0) followed by affinity purification on a Nickel-NTA column (Qiagen). […] Proteins were eluted at a flow rate of 0.5 ml/min and monitored by absorbance at λ = 276 nm.
All NMR experiments were performed on a Bruker DRX 600 MHz spectrometer equipped with an actively shielded cryoprobe. NMR data were processed using the NMRPipe and NMRDraw suite and analysed by Sparky (T.D. Goddard and D.G. Kneller, University of California, San Francisco). […] The stock solutions of the above mentioned peptides were prepared in the same buffer (100 mM NaCl, 2 mM DTT, 50 mM sodium phosphate, pH 6.0) used for the Dok1 PTB domain NMR experiments, ^15N-^1H HSQC spectra were recorded at different protein:peptide molar ratios (1:0.1, 1:0.2, 1:0.3, 1:0.5, 1:1, 1:1.5, 1:2, 1:2.5 and 1:3) for all of the above mentioned peptides except for the unphosphorylated KT15. […]

[1] = Solubility of β2 tail peptide as observed in NMR sample preparation; format: physicochemical; settings: at high concentrations, NMR buffer
[2] = biological target: T2, Human Dok1 PTB domain (Q154-G256) (human, UniProt Q99704 154-256); experiment: NMR titration; 15N-1H HSQC of 15N-labelled Dok1 PTB domain at 0.7 mM, unlabelled peptide added (protein:peptide 1:0.1 to 1:3; KT15 1:0.5 to 1:6); 100 mM NaCl, 2 mM DTT, 50 mM sodium phosphate, pH 6.0; Kd from combined chemical shift changes, depletion model; apparent for KT15; settings: both partners purified
T2 construct: Docking protein 1 (Dok1; p62Dok), human, PTB domain Q154-G256 of Swiss-Prot Q99704. numbers count on: the construct, renumbered Q1-G103 (Q154 = Q1); pET14b vector; no removal of the His tag is described; Residue numbers of the PTB domain in the results (Arg54, Arg69 ...) count on Q1-G103; also called PTB domain of Dok1; source: E. coli Rosetta, purified (Nickel-NTA, gel filtration on Superdex …)
T2 sequence (looked up): T1 sequence (Q99704 154-256)

[3] = tested on: Dok1-CFP / integrin β2-YFP association in K562 cells; experiment: YFP-photobleach FRET between Dok1-CFP and integrin β2-YFP in K562 cells; format: cell-based, human; settings: K562 stably expressing Dok1-CFP, transfected with integrin αL, β2-YFP and CCR5; RANTES 50 ng/ml, 10 min, 37 °C; 39 cells with, 60 without; p < 0.05
Protocol: K562 cells (ATCC, Manassas, VA) were cultured in RPMI1640 full-medium containing 10% (v/v) FBS and antibiotics. Cells (2 × 10^6) were transfected with integrin αL plasmid (9 μg), integrin β2-YFP plasmid (WT or mutant) (9 μg) and Dok1-CFP or CFP plasmid (12 μg) by electroporation using the Neon electroporation kit (Invitrogen) on a MP-100 pipette-type microporator (Invitrogen). YFP-photobleach FRET assay was performed essentially as described. Immunoblottings of transfected K562 lysates were performed using rabbit anti-GFP antibody (Life Technologies, Grand Island, NY), rabbit anti-Dok1 antibody (Abcam, Cambridge, MA) and HRP-conjugated goat anti-rabbit (Avansta, Menlo Park, CA) followed by ECL detection. To generate K562 cells stably expressing Dok1-CFP, cells were transfected with Dok1-CFP plasmid by electroporation followed by serial dilutions into 96-well cell culture microtitre plates to select for stable clones in the presence of antibiotic G418 (0.6 mg/ml). Clones expressing Dok1-CFP were screened by flow cytometry analyses and verified by immunoblotting with anti-GFP antibody (Life Technologies, Grand Island, NY). […] Samples were acquired and examined on a FACSCalibur flow cytometer and data analyzed using the Flowjo software (Tree Star Inc. Ashland, OR). […]

Kd (Dok1 PTB domain): 16000 ± 300 µM
Molecule: CC(C)C[C@H](NC(=O)[C@@H]1CCCN1C(=O)[C@H](CC(N)=O)NC(=O)[C@H](CC(=O)O)NC(=O)[C@H](CC(N)=O)NC(=O)[C@H](CC(N)=O)NC(=O)[C@H](Cc1c[nH]c2ccccc12)NC(=O)[C@H](CCC(N)=O)NC(=O)[C@H](CO)NC(=O)[C@@H](N)CCCCN)C(=O)N[C@@H](Cc1ccccc1)C(=O)N[C@@H](CCCCN)C(=O)N[C@@H](CO)C(=O)N[C@@H](C)C(=O)N[C@H](C(=O)O)[C@@H](C)O [KT15] (H-KSQWNNDNPLFKSAT-OH)

Kd (Dok1 PTB domain): 189 ± 30 µM
Molecule: CC(C)C[C@H](NC(=O)[C@@H]1CCCN1C(=O)[C@H](CC(N)=O)NC(=O)[C@H](CC(=O)O)NC(=O)[C@H](CC(N)=O)NC(=O)[C@H](CC(N)=O)NC(=O)[C@H](Cc1c[nH]c2ccccc12)NC(=O)[C@H](CCC(N)=O)NC(=O)[C@H](CO)NC(=O)[C@@H](N)CCCCN)C(=O)N[C@@H](Cc1ccccc1)C(=O)N[C@@H](CCCCN)C(=O)N[C@@H](COP(=O)(O)O)C(=O)N[C@@H](C)C(=O)N[C@H](C(=O)O)[C@@H](C)O [pSer756-KT15] (H-KSQWNNDNPLFK[pS]AT-OH)

Solubility in words [1]: limited solubility
Molecule: KALIHLSDLREYRRFEKEKLKSQWNNDNPLFKSATTTVMNPKFAES [full-length unphosphorylated β2 tail, Synthetic full-length integrin β2 (CD18) cytoplasmic tail, residues 724-769]

Kd [2]: 8490 µM
B1: KT18EE, integrin β2 tail fragment (K742-T759) with Ser745 and Ser756 substituted by Glu (peptide)
peptide: KLKEQWNNDNPLFKEATT
notes: also called Ser to Glu substituted KT18 peptide; Ser to Glu substituted β2 tail peptide; source: synthetic peptide, bought: GLBioChem, Shanghai (purity >95%)

The remaining lines, values behind:

Molecule: KALIHLSDLREYRRFEKEKLK[pS]QWNNDNPLFKSATTTVMNPKFAES [Full-length integrin β2 tail peptide phosphorylated at Ser745]
Kd [2]: 215 µM

B2: RANTES: Chemokine, ligand of CCR5, used to activate cells (Calbiochem) (protein, UniProt P13501 24-91, looked up)
C-C motif chemokine 5: SPYSSDTTPCCFAYIARPLPRAHIKEYFYTSGKCSNPAVVFVTRKNRQVCANPEKKWVREYINSLEMS
FRET signal Dok1-CFP / integrin β2-YFP compared with untreated cells [3]: significantly lower

Molecule: KALIHLSDLREYRRFEKEKLKSQWNNDNPLFK[pS]ATTTVMNPKFAES [Full-length integrin β2 tail peptide phosphorylated at Ser756]
Kd [2]: 98 µM
